Molecular target: T1, recombinant folate receptor alpha protein (immobilized) (UniProt P15328 25-233, limits assumed)
T1 construct: also called FRa
Test: binding of GFP+ IR T cells to immobilized recombinant protein (FIG. 3A)

T1 sequence (P15328 25-233 limits assumed): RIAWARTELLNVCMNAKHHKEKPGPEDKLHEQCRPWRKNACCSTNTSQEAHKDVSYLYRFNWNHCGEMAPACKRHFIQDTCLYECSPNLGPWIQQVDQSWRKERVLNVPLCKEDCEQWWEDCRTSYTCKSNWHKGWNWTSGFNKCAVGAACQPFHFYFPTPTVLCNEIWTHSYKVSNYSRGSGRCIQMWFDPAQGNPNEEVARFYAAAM

Binder | binding result
Anti-FSHRb33-53FSH-28z immunoreceptor (on primary human T cells) (other, also called anti-FSHR (33-53)-28z IR; Anti-FSHR(33-53)-28z) not shown | no binding
Anti-FSHRb51-65FSH-28z immunoreceptor (on primary human T cells) (other, not shown: large carriers, Chimeric immunoreceptor on transduced primary human T cells; also called anti-FSHR (51-65)-28z IR; Anti-FSHR(51-65)-28z) not shown | no binding
